Laboratory results published in patent US20240376170A1 (BRIGHT PEAK THERAPEUTICS, published 2024).
Values belong to the binder of their own block, whether it stands above or below them. Bridges are numbered along the chain shown (N, C = ends). Primed or numbered codes have the meaning given here. [ ]: non-standard residue; d: D form. 8x polyethylene glycol‑amino = O-(8x polyethylene glycol-amino)-tyrosine, SITE 45; 9x polyethylene glycol‑azido = O-(9x polyethylene glycol-azido)-tyrosine, SITE 42; Ygp(4) = Tyr with amino-capped PEG8 (O-(8x polyethylene glycol-amino)-tyrosine); Yn3(4) = Tyr with azide-capped PEG9 (O-(9x polyethylene glycol-azido)-tyrosine); Ygp = O-(8x polyethylene glycol-amino)-tyrosine (Tyr, amino-capped PEG8); Yn3 = O-(9x polyethylene glycol-azido)-tyrosine (Tyr, azide-capped PEG9); Ygp″ = O-(8x polyethylene glycol-amino)-tyrosine; Yn3″ = O-(9x polyethylene glycol-azido)-tyrosine; Ygp(6) = Tyr, amino-capped PEG8; Yn3(6) = Tyr, azide-capped PEG9; PEG4′ = 4x polyethylene glycol; hSer = N[C@@H](CCO)C(=O)O; Nle = CCCC[C@H](N)C(=O)O

Molecular target: T1, IL-2Rβγ on HEK-Blue IL-2Rβγ reporter cells (InvivoGen) (UniProt P14784 27-551; P31785 23-369, limits assumed)
T1 sequence (looked up) 1: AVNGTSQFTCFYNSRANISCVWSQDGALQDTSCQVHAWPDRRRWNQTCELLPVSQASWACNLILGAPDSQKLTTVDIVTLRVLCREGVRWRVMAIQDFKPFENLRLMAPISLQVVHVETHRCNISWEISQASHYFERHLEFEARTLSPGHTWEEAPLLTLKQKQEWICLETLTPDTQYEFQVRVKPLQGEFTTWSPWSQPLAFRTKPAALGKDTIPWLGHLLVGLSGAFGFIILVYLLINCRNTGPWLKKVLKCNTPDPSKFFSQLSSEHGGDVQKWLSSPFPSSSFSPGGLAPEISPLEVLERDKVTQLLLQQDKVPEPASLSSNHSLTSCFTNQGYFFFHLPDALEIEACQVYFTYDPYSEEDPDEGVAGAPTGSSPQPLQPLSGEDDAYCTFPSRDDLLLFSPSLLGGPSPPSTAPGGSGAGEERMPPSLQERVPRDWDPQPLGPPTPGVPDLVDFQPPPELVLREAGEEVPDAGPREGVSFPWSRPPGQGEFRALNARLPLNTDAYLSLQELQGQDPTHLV
T1 sequence (looked up) 2: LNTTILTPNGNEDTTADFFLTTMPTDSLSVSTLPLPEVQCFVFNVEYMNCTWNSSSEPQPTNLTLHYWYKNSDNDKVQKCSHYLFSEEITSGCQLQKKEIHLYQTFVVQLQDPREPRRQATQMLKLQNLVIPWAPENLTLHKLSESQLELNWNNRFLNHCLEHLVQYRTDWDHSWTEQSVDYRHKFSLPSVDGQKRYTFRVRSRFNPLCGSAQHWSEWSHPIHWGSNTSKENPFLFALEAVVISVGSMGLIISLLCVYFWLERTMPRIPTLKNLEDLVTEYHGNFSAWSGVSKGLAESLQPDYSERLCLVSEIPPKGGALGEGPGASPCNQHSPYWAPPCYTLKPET
Experiment: cell-based or functional assay

Average EC50, HEK-Blue IL-2R (CD122+, CD132+) Reporter Assay, intact molecule: 0.0968 nM
B1: CMP-316 (ligand)
chain: APTSSSTKKTQLQLEHLLLDLQKILNGINNYKNPKLTR[Nle]L[hSer][Yn3]KF[Ygp][Nle]PKKATELKHLQCLEEELKPLEEVL[hSer]LAQSKNFHLRPRDLISNINVIVLELKGSETTF[hSer]CEYADETATIVEFLNRWITFSQSIISTLT
modifications: ends and bridges not checked; also: further groups not given here

Average EC50, HEK-Blue IL-2R (CD122+, CD132+) Reporter Assay, MMP2 cleaved molecule: 0.0418 nM
B2: CMP-315, MMP2 cleaved (ligand)
chain: APTSSSTKKTQLQLEHLLLDLQKILNGINNYKNPKLTR[Nle]L[hSer][Yn3(4)]KF[Ygp(4)][Nle]PKKATELKHLQCLEEELKPLEEVL[hSer]LAQSKNFHLRPRDLISNINVIVLELKGSETTF[hSer]CEYADETATIVEFLNRWITFSQSIISTLT
modifications: ends and bridges not checked; also: MMP2-cleaved, product after cut not given here, further groups not given here

Average EC50, HEK-Blue IL-2R (CD122+, CD132+) Reporter Assay, MMP2 cleaved molecule: 0.0702 nM
B3: CMP-329, MMP2 cleaved (ligand)
chain: APTSSSTKKTQLQLEHLLLDLQEILNGINNYKNPKLTR[Nle]L[hSer][Yn3″]KF[Ygp″][Nle]PKKATELKHLQCLEEELKPLEEVL[hSer]LAQSKNFHLRPRDLISNINVIVLELKGSETTF[hSer]CEYADETATIVEFLNRWITFSQSIISTLT
modifications: ends and bridges not checked; also: after MMP2 cleavage, remnants of the Lys9–Glu23 peptide linker not given here

Average EC50, HEK-Blue IL-2R (CD122+, CD132+) Reporter Assay, intact molecule: 1.7 nM
B4: CMP-329 (ligand)
chain: APTSSSTKKTQLQLEHLLLDLQEILNGINNYKNPKLTR[Nle]L[hSer][Yn3″]KF[Ygp″][Nle]PKKATELKHLQCLEEELKPLEEVL[hSer]LAQSKNFHLRPRDLISNINVIVLELKGSETTF[hSer]CEYADETATIVEFLNRWITFSQSIISTLT
modifications: bridge 9-23; not fully specified (bridges); ends not checked

Average EC50, HEK-Blue IL-2R (CD122+, CD132+) Reporter Assay, MMP2 cleaved molecule: 0.558 nM
B5: CMP-330, MMP2 cleaved (ligand)
chain: APTSSSTKKTQLQLEHLLLDLQEILNGINNYKNPKLTR[Nle]L[hSer]Y(9x polyethylene glycol‑azido)KFY(8x polyethylene glycol‑amino)[Nle]PKKATELKHLQCLEEELKPLEEVL[hSer]LAQSKNFHLRPRDLISNINVIVLELKGSETTF[hSer]CEYADETATIVEFLNRWITFSQSIISTLT
modifications: not fully specified; also: before the cut Lys9 and Glu23 side chains are bridged by a peptide linker, what remains after the cut not given here

Average EC50, HEK-Blue IL-2R (CD122+, CD132+) Reporter Assay, intact molecule: 0.775 nM
B6: CMP-320 (ligand)
chain: SGRVAPQPLVDAPTSSSTKKTQLQLEHLLLDLQEILNGINNYKNPKLTR[Nle]L[hSer][Yn3(6)]KF[Ygp(6)][Nle]PKKATELKHLQCLEEELKPLEEVL[hSer]LAQSKNFHLRPRDLISNINVIVLELKGSETTF[hSer]CEYADETATIVEFLNRWITFSQSIISTLT
modifications: lactam N-34

Average EC50, HEK-Blue IL-2R (CD122+, CD132+) Reporter Assay, Matriptase cleaved molecule: 0.0349 nM
B7: CMP-315, matriptase cleaved (ligand)
chain: APTSSSTKKTQLQLEHLLLDLQKILNGINNYKNPKLTR[Nle]L[hSer][Yn3]KF[Ygp][Nle]PKKATELKHLQCLEEELKPLEEVL[hSer]LAQSKNFHLRPRDLISNINVIVLELKGSETTF[hSer]CEYADETATIVEFLNRWITFSQSIISTLT
modifications: ends and bridges not checked; also: further groups not given here, tested after matriptase cleavage, remaining product not given here

Average EC50, HEK-Blue IL-2R (CD122+, CD132+) Reporter Assay, intact molecule: 0.0554 nM
B8: CMP-315 (ligand)
chain: APTSSSTKKTQLQLEHLLLDLQKILNGINNYKNPKLTR[Nle]L[hSer][Yn3(4)]KF[Ygp(4)][Nle]PKKATELKHLQCLEEELKPLEEVL[hSer]LAQSKNFHLRPRDLISNINVIVLELKGSETTF[hSer]CEYADETATIVEFLNRWITFSQSIISTLT
modifications: ends and bridges not checked; also: further groups not given here

Average EC50, HEK-Blue IL-2R (CD122+, CD132+) Reporter Assay, intact molecule: 3.37 nM
B9: CMP-318 (ligand)
chain: SGRVANLVGAPTSSSTKKTQLQLEHLLLDLQEILNGINNYKNPKLTR[Nle]L[hSer][Yn3]KF[Ygp][Nle]PKKATELKHLQCLEEELKPLEEVL[hSer]LAQSKNFHLRPRDLISNINVIVLELKGSETTF[hSer]CEYADETATIVEFLNRWITFSQSIISTLT
modifications: lactam N-32; ends not checked

Average EC50, HEK-Blue IL-2R (CD122+, CD132+) Reporter Assay, intact molecule: 2.24 nM
B10: CMP-317 (ligand)
chain: GSGSGSG[PEG4′]APTSSSTKKTQLQLEHLLLDLQEILNGINNYKNPKLTR[Nle]L[hSer][Yn3]KF[Ygp][Nle]PKKATELKHLQCLEEELKPLEEVL[hSer]LAQSKNFHLRPRDLISNINVIVLELKGSETTF[hSer]CEYADETATIVEFLNRWITFSQSIISTLT
modifications: bridge N-31; not fully specified (bridges); ends not checked

Average EC50, HEK-Blue IL-2R (CD122+, CD132+) Reporter Assay, uPa cleaved molecule: 0.0581 nM
B11: CMP-315, uPa cleaved (ligand)
chain: APTSSSTKKTQLQLEHLLLDLQKILNGINNYKNPKLTR[Nle]L[hSer][Yn3]KF[Ygp][Nle]PKKATELKHLQCLEEELKPLEEVL[hSer]LAQSKNFHLRPRDLISNINVIVLELKGSETTF[hSer]CEYADETATIVEFLNRWITFSQSIISTLT
modifications: ends and bridges not checked; also: further groups not given here, tested after uPa cleavage, remaining product not given here

Average EC50, HEK-Blue IL-2R (CD122+, CD132+) Reporter Assay, MMP2 cleaved molecule: 0.0963 nM
B12: CMP-316, MMP2 cleaved (ligand)
chain: APTSSSTKKTQLQLEHLLLDLQKILNGINNYKNPKLTR[Nle]L[hSer][Yn3]KF[Ygp][Nle]PKKATELKHLQCLEEELKPLEEVL[hSer]LAQSKNFHLRPRDLISNINVIVLELKGSETTF[hSer]CEYADETATIVEFLNRWITFSQSIISTLT
modifications: ends and bridges not checked; also: further groups not given here, tested after MMP2 cleavage, remaining product not given here

Average EC50, HEK-Blue IL-2R (CD122+, CD132+) Reporter Assay, uPa cleaved molecule: 0.0884 nM
B13: CMP-316, uPa cleaved (ligand)
chain: APTSSSTKKTQLQLEHLLLDLQKILNGINNYKNPKLTR[Nle]L[hSer][Yn3]KF[Ygp][Nle]PKKATELKHLQCLEEELKPLEEVL[hSer]LAQSKNFHLRPRDLISNINVIVLELKGSETTF[hSer]CEYADETATIVEFLNRWITFSQSIISTLT
modifications: ends and bridges not checked; also: further groups not given here, tested after uPa cleavage, remaining product not given here

Average EC50, HEK-Blue IL-2R (CD122+, CD132+) Reporter Assay, intact molecule: 4.2 nM
B14: CMP-321 (ligand)
chain: SGRVQPLVDAPTSSSTKKTQLQLEHLLLDLQEILNGINNYKNPKLTR[Nle]L[hSer][Yn3(6)]KF[Ygp(6)][Nle]PKKATELKHLQCLEEELKPLEEVL[hSer]LAQSKNFHLRPRDLISNINVIVLELKGSETTF[hSer]CEYADETATIVEFLNRWITFSQSIISTLT
modifications: lactam N-32

Average EC50, HEK-Blue IL-2R (CD122+, CD132+) Reporter Assay, intact molecule: 1.73 nM
B15: CMP-330 (ligand)
chain: APTSSSTKKTQLQLEHLLLDLQEILNGINNYKNPKLTR[Nle]L[hSer]Y(9x polyethylene glycol‑azido)KFY(8x polyethylene glycol‑amino)[Nle]PKKATELKHLQCLEEELKPLEEVL[hSer]LAQSKNFHLRPRDLISNINVIVLELKGSETTF[hSer]CEYADETATIVEFLNRWITFSQSIISTLT
modifications: bridge 9-23; not fully specified (bridges)

Average EC50, HEK-Blue IL-2R (CD122+, CD132+) Reporter Assay, Matriptase cleaved molecule: 0.0828 nM
B16: CMP-316, matriptase cleaved (ligand)
chain: APTSSSTKKTQLQLEHLLLDLQKILNGINNYKNPKLTR[Nle]L[hSer][Yn3]KF[Ygp][Nle]PKKATELKHLQCLEEELKPLEEVL[hSer]LAQSKNFHLRPRDLISNINVIVLELKGSETTF[hSer]CEYADETATIVEFLNRWITFSQSIISTLT
modifications: ends and bridges not checked; also: further groups not given here, tested after matriptase cleavage, remaining product not given here
